Measured values taken from paper PMC13544220, “Glycemic and bodyweight effects of GIPR coding variation reflect differences in surface expression and intrinsic functional impairment” (Science Advances, 2026).
Where a chain is given by its changes, count along the chain named. Names may count otherwise.

How the values were obtained:
Assay type in all cases: cell-based, human
[1] = tested on: wild-type and variant SNAP-GIPR; assay: Surface SNAP-GIPR expression (SNAP-tag labelling) in AD293 cells; details: for AD293 Surface: Fig S3E, mean; for Surface SNAP-GIPR expression: sheet Fig 1C;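 as to all read-outs here: scaled to the experimental average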
Method in brief: (§1)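 Read-out: whole-cell fluorescence of surface-only SNAP label (Alexa Fluor 647, 500 nM, 10 min, RT), wide-field 20X, several FOVs per well. Flat-field corrected, phase-contrast masked, nontransfected-well signal subtracted; normalized to experiment mean or wild-type.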

[2] = tested on: wild-type and variant SNAP-GIPR; assay: Surface SNAP-GIPR expression (SNAP-tag labelling) in INS-1 cells; details: Fig 4G; Mean
Method in brief: as §1

[3] = tested on: wild-type and variant SNAP-GIPR; assay: Single-concentration GIP cAMP response by HTRF in AD293 cells; details: Fig S3F, HTRF, mean;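 also: ratio to experiment-wide average response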
Experimental: (§2) All variants were tested in parallel on each occasion to control for transfection efficiency differences between experiments.

[4] = tested on: wild-type and variant SNAP-GIPR; assay: Single-concentration GIP cAMP response by HTRF in INS-1 cells; details: Fig S3E, mean
Experimental: as §2

[5] = tested on: wild-type and variant SNAP-GIPR; assay: cADDis cAMP imaging in AD293 cells, ensemble, expression-matched and per decile; details: Fig S3F, cADDis, mean;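 also: Ensemble cells as % of IBMX/FSK response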
Method in brief: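 AD293 cells were transfected with SNAP-GIPR constructs and cotransduced with the cADDis Green Up cAMP sensor, then labeled after 24 h with 500 nM SNAP-Surface Alexa Fluor 647. Per-cell cADDis intensity was tracked at 37°C in KRBH with 6 mM glucose and 0.1% BSA.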

[6] = tested on: wild-type and variant SNAP-GIPR; assay: Constitutive and agonist-mediated internalization, reversible SNAP-tag labelling, AD293 cells; design: key to Internalisation, Vehicle / Internalisation, +GIP / Internalisation, GIP-only: % internalization: residual fluorescence after Mesna vs pre-Mesna; Surface expression: unit not given here; details: Mean; for +GIP internalisation (100 nM) / GIP-specific internalisation (100 nM) / Constitutive internalisation (100 nM) / Surface expression: Fig 4E; for +GIP internalisation (100 nM) / GIP-specific internalisation (100 nM): GIP 100 nM; for Internalisation, +GIP / Internalisation, GIP-only / Internalisation, Vehicle: Fig S4C, AD293
Method in brief: (§3)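 Percentage internalization is read as the fraction of specific SNAP fluorescence that survives Mesna stripping, compared with the image taken before Mesna. Wells are imaged in TNE buffer at pH 8.6 and again after 10 min.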

[7] = tested on: wild-type and variant SNAP-GIPR; assay: Constitutive and agonist-mediated internalization, reversible SNAP-tag labelling, INS-1 cells; design: key to Internalisation, GIP-only / Internalisation, Vehicle / Internalisation, +GIP: % internalization: residual fluorescence after Mesna vs pre-Mesna; details: Mean; for +GIP internalisation (100 nM) / GIP-specific internalisation (100 nM) / Constitutive internalisation (100 nM): Fig 4G; for +GIP internalisation (100 nM) / GIP-specific internalisation (100 nM): GIP 100 nM; for Internalisation, +GIP / Internalisation, GIP-only / Internalisation, Vehicle: Fig S4C, INS-1
Method in brief: as §3

[8] = column repeated, paired with cAMP 100 nM

B1: S447T (protein, UniProt P48546 22-466, looked up, variant S447T)
Gastric inhibitory …: RAETGSKGQTAGELYQRWERYRRECQETLAAAEPPSGLACNGSFDMYVCWDYAAPNATARASCPWYLPWHHHVAAGFVLRQCGSDGQWGLWRDHTQCENPEKNEAFLDQRLILERLQVMYTVGYSLSLATLLLALLILSLFRRLHCTRNYIHINLFTSFMLRAAAILSRDRLLPRPGPYLGDQALALWNQALAACRTAQIVTQYCVGANYTWLLVEGVYLHSLLVLVGGSEEGHFRYYLLLGWGAPALFVIPWVIVRYLYENTQCWERNEVKAIWWIIRTPILMTILINFLIFIRILGILLSKLRTRQMRCRDYRLRLARSTLTLVPLLGVHEVVFAPVTEEQARGALRFAKLGFEIFLSSFQGFLVSVLYCFINKEVQSEIRRGWHHCRLRRSLGEEQRQLPERAFRALPSGSGPGEVPTSRGLTSGTLPGPGNEASRELESYC
- AD293 Surface [1, 8]: 1.404
- AD293 Surface ([1]; paired with cAMP 100 pM): 1.404
- Surface SNAP-GIPR expression ([1]; replicate 1): 1.604
- Surface SNAP-GIPR expression ([1]; replicate 2): 1.279
- Surface SNAP-GIPR expression ([1]; replicate 3): 1.391
- Surface SNAP-GIPR expression ([1]; replicate 4): 2.61
- Surface SNAP-GIPR expression ([1]; replicate 5): 1.403
- Surface SNAP-GIPR expression ([1]; replicate 6): 1.423
- Surface SNAP-GIPR expression ([1]; replicate 7): 1.077
- Surface SNAP-GIPR expression ([1]; replicate 8): 1.469
- Surface SNAP-GIPR expression ([1]; replicate 9): 1.63
- Surface SNAP-GIPR expression ([1]; replicate 10): 1.374
- Surface SNAP-GIPR expression ([1]; replicate 11): 1.745
- Surface SNAP-GIPR expression ([1]; replicate 12): 1.689
- Surface SNAP-GIPR expression ([1]; replicate 13): 1.462
- Surface SNAP-GIPR expression ([1]; replicate 14): 1.46
- Surface SNAP-GIPR expression ([1]; replicate 15): 1.674
- Surface SNAP-GIPR expression ([1]; replicate 16): 1.628
- Surface SNAP-GIPR expression ([1]; replicate 17): 1.349
- Surface SNAP-GIPR expression ([1]; replicate 18): 1.205
- Surface SNAP-GIPR expression ([1]; replicate 19): 1.299
- Surface SNAP-GIPR expression ([1]; replicate 20): 1.361
- Surface SNAP-GIPR expression ([1]; replicate 21): 1.342
- Surface SNAP-GIPR expression ([1]; replicate 22): 1.393
- Surface SNAP-GIPR expression ([1]; replicate 23): 1.314
- Surface SNAP-GIPR expression ([1]; replicate 24): 1.27
- Surface SNAP-GIPR expression ([1]; replicate 25): 1.747
- Surface SNAP-GIPR expression ([1]; replicate 26): 1.476
- Surface SNAP-GIPR expression ([1]; replicate 27): 1.434
- Surface SNAP-GIPR expression ([1]; replicate 28): 1.161
- Surface SNAP-GIPR expression ([1]; replicate 29): 0.9451
- Surface SNAP-GIPR expression ([1]; replicate 30): 1.119
- Surface SNAP-GIPR expression ([1]; replicate 31): 1.316
- Surface SNAP-GIPR expression ([1]; replicate 32): 1.418
- Surface SNAP-GIPR expression ([1]; replicate 33): 1.322
- Surface SNAP-GIPR expression ([1]; replicate 34): 1.362
- Surface SNAP-GIPR expression ([1]; replicate 35): 1.415
- Surface SNAP-GIPR expression ([1]; replicate 36): 1.515
- Surface SNAP-GIPR expression ([1]; replicate 37): 1.174
- Surface SNAP-GIPR expression ([1]; replicate 38): 1.292
- Surface SNAP-GIPR expression ([1]; replicate 39): 1.035
- Surface SNAP-GIPR expression ([1]; replicate 40): 1.181
- Surface SNAP-GIPR expression ([1]; replicate 41): 1.207
- Surface expression [2]: 1.143
- AD293 100 pM HTRF [3]: 1.563
- AD293 100 nM HTRF [3]: 1.418
- INS-1 cAMP (100 nM) [4]: 1.225
- AD293 100 pM cADDis [5]: 33.2503
- AD293 100 nM cADDis [5]: 38.05
- +GIP internalisation (100 nM) [6]: 0.6943
- GIP-specific internalisation (100 nM) [6]: 0.1731
- Constitutive internalisation (100 nM) [6]: 0.5211
- Surface expression [6]: 1.271
- Internalisation, +GIP [6]: 54.6308
- Internalisation, GIP-only [6]: 13.6704
- Internalisation, Vehicle [6]: 40.9604
- +GIP internalisation (100 nM) [7]: 0.5789
- GIP-specific internalisation (100 nM) [7]: 0.1373
- Constitutive internalisation (100 nM) [7]: 0.4416
- Internalisation, +GIP [7]: 49.3117
- Internalisation, GIP-only [7]: 11.6867
- Internalisation, Vehicle [7]: 37.625

B2: E252D (protein)
chain: B1 Gastric inhibitory … with E231D, T426S
- AD293 Surface [1, 8]: 1.407
- AD293 Surface ([1]; paired with cAMP 100 pM): 1.407
- Surface SNAP-GIPR expression ([1]; replicate 1): 1.329
- Surface SNAP-GIPR expression ([1]; replicate 2): 1.136
- Surface SNAP-GIPR expression ([1]; replicate 3): 2.323
- Surface SNAP-GIPR expression ([1]; replicate 4): 1.309
- Surface SNAP-GIPR expression ([1]; replicate 5): 1.389
- Surface SNAP-GIPR expression ([1]; replicate 6): 1.509
- Surface SNAP-GIPR expression ([1]; replicate 7): 1.009
- Surface SNAP-GIPR expression ([1]; replicate 8): 1.58
- Surface SNAP-GIPR expression ([1]; replicate 9): 1.305
- Surface SNAP-GIPR expression ([1]; replicate 10): 1.452
- Surface SNAP-GIPR expression ([1]; replicate 11): 1.297
- Surface SNAP-GIPR expression ([1]; replicate 12): 1.294
- Surface SNAP-GIPR expression ([1]; replicate 13): 1.499
- Surface SNAP-GIPR expression ([1]; replicate 14): 1.714
- Surface SNAP-GIPR expression ([1]; replicate 15): 1.276
- Surface SNAP-GIPR expression ([1]; replicate 16): 1.31
- Surface SNAP-GIPR expression ([1]; replicate 17): 1.201
- Surface SNAP-GIPR expression ([1]; replicate 18): 1.327
- Surface SNAP-GIPR expression ([1]; replicate 19): 1.07
- Surface SNAP-GIPR expression ([1]; replicate 20): 1.361
- Surface SNAP-GIPR expression ([1]; replicate 21): 1.327
- Surface SNAP-GIPR expression ([1]; replicate 22): 1.295
- Surface SNAP-GIPR expression ([1]; replicate 23): 1.346
- Surface SNAP-GIPR expression ([1]; replicate 24): 1.279
- Surface SNAP-GIPR expression ([1]; replicate 25): 1.414
- Surface SNAP-GIPR expression ([1]; replicate 26): 1.49
- Surface SNAP-GIPR expression ([1]; replicate 27): 1.461
- Surface SNAP-GIPR expression ([1]; replicate 28): 1.564
- Surface SNAP-GIPR expression ([1]; replicate 29): 1.396
- Surface SNAP-GIPR expression ([1]; replicate 30): 1.388
- Surface SNAP-GIPR expression ([1]; replicate 31): 2.074
- Surface SNAP-GIPR expression ([1]; replicate 32): 1.301
- Surface SNAP-GIPR expression ([1]; replicate 33): 1.332
- Surface SNAP-GIPR expression ([1]; replicate 34): 1.623
- Surface SNAP-GIPR expression ([1]; replicate 35): 1.576
- Surface SNAP-GIPR expression ([1]; replicate 36): 1.688
- Surface SNAP-GIPR expression ([1]; replicate 37): 1.181
- Surface SNAP-GIPR expression ([1]; replicate 38): 1.286
- Surface SNAP-GIPR expression ([1]; replicate 39): 1.291
- Surface SNAP-GIPR expression ([1]; replicate 40): 1.349
- Surface SNAP-GIPR expression ([1]; replicate 41): 1.333
- Surface expression [2]: 1.379
- AD293 100 pM HTRF [3]: 2.258
- AD293 100 nM HTRF [3]: 1.787
- INS-1 cAMP (100 nM) [4]: 1.435
- AD293 100 pM cADDis [5]: 35.9603
- AD293 100 nM cADDis [5]: 38.59
- +GIP internalisation (100 nM) [6]: 0.7833
- GIP-specific internalisation (100 nM) [6]: 0.2173
- Constitutive internalisation (100 nM) [6]: 0.566
- Surface expression [6]: 1.422
- Internalisation, +GIP [6]: 55.2271
- Internalisation, GIP-only [6]: 15.2317
- Internalisation, Vehicle [6]: 39.9954
- +GIP internalisation (100 nM) [7]: 0.6632
- GIP-specific internalisation (100 nM) [7]: 0.1797
- Constitutive internalisation (100 nM) [7]: 0.4835
- Internalisation, +GIP [7]: 49.4067
- Internalisation, GIP-only [7]: 13.4967
- Internalisation, Vehicle [7]: 35.91
